Patent publication CN114805568A (BEIJING KENUO XINCHENG TECH CO LTD, dated 2022)
Several values for one entry are separate records, joined by “and”; a condition that tells them apart may be missing. Equal values may be shown once.

Key:
[1] = biological target: T1, LILRB2-mFc(NCBI号:AAH36827，22-461氨基酸) (UniProt Q8N423 22-461); assay: blocking ELISA: LILRB2-mFc binding to coated HLA-G
T1 construct: range 22-461; also called 重组LILRB2; not shown: mouse Fc (mFc)

[2] = biological target: T2, LILRB2重组蛋白(购于ACRO，Cat# LI2-H5220) (UniProt Q8N423 22-461); assay: BLI (Octet QKe), antibody captured on AHC probe, LILRB2 as analyte, 1:1 fit
T2 construct: Bought reagent; Used as analyte at '60nm' in BLI

B1: JTX-8064 (antibody, V domains shown)
VH: QITLKESGPTLVKPTQTLTLTCTFSGFSLNTYAMGVSWIRQPPGKALEWLASIWWNGNKYNNPSLKSRLTVTKDTSKNQVVLTMTNMDPVDTATYYCAHSRIIRFTDYVMDAWGQGTLVTVSS
VL: DIQMTQSPSSLSTSVGDRVTITCRASEDIYNDLAWYQQKPGKAPKLLIYNANSLHTGVASRFSGSGSGTDFTFTISSLQPEDVATYFCQQYYDYPLTFGQGTKLEIK
notes: expressed in HEK293, Protein A purified; also called 对照抗体
With B1 the IC50 [1] was 0.86 nM and 1 nM, the Kd [2] was 4.93 nM and the koff [2] was 0.00211 s⁻¹. It also gave a kon [2] of 428000 M⁻¹ s⁻¹.
